{"source": "paper PMC10373542", "target": "SARS-CoV-2 WA-1 stabilized S trimer, HexaPro (SARS-CoV-2) (UniProt P0DTC2)", "experiment": "BLI"}
{"substance": "CR3022 monoclonal antibody", "values": [{"measurement": "fold increase of binding when S protein is bound to WRAIR-2063", "value": 6, "unit": "fold"}]}
